Measurements reported in the supplement of paper PMC9170038.

System: MS2 coat protein
Assay: apparent KD of MS2 coat protein; designed switch direction (-1 OFF switch, 1 ON switch): -1; higher = weaker reporter binding
Summary of the method: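 Designed RNA switches sharing common flanks were transcribed on Illumina chips by stalled E. coli RNA polymerase. They were titrated with SNAP-549-labelled MS2 coat protein, from 0.7 or 1.5 nM doubling to 3 µM, in Tris-HCl pH 7.5 buffer with KCl, MgCl2, BSA, DTT, tRNA and Tween-20. Titrations ran without input, with 200 uM small-molecule ligand, or with an oligonucleotide input. The apparent KD of each design is the median over its clusters, after curve-fitting of normalised cluster fluorescence.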

[1] = input ligand: microRNA oligo, concentration not stated
[2] = Eterna round: R95, input ligand: microRNA oligo, concentration not stated
[3] = Eterna round: R95, input ligand: FMN 200 uM
[4] = Eterna round: R95, input ligand: none

For “GCAGCUAAGUGUAAUAACACAAUACAUGAGGAUCACCCAUGUGAGGAUAUGGACUGGAUUACAGUCCAGAAGGCACAAUGCUGC [Zipper Style 4] (Eterna round: R96, puzzle: Exclusion NG 3)”, the “apparent KD of MS2 coat protein” value (input ligand: FMN 200 uM) was 17.2 nM, the “apparent KD of MS2 coat protein” value [1] was 16.2 nM and the “apparent KD of MS2 coat protein” value (input ligand: none) was 20.9 nM.
For “GCAGCUAGUUCAGGAUAUCAGCACGAUUAGUGCUGAGAAGGGAACAUGAGGAUCACCCAUGUGAUCAAUGCUGCAAUUUUAAUU [ENG1/12-A1] (Eterna round: R96, puzzle: Exclusion NG 1)”, the “apparent KD of MS2 coat protein” value (input ligand: FMN 200 uM) was 481 nM, the “apparent KD of MS2 coat protein” value [1] was 235 nM and the “apparent KD of MS2 coat protein” value (input ligand: none) was 597 nM.
With “GCAGGAUAAGUGAGGAUAUACCUCUGGAUACAGAGGUAGAAGGUACAUGAGGAUCACCCAUGUCUAUAACCUGC [Fiskers BMX 4 - 80] (puzzle: Brourd's mod of Exclusion 4)” the “apparent KD of MS2 coat protein” value [2] was 12.9 nM.
For “GCAGGCGUCUUGGCUCGUCUUAUUUUGAGAGGAUUGAUAACAUGAGGAUCACCCAUGUUUGUGGGAGAGUUGCAGUG [JR_SV3TOV2_Sub016] (puzzle: Sensor v3, turn-off variant 2)”, the “apparent KD of MS2 coat protein” value [3] was 108 nM, the “apparent KD of MS2 coat protein” value [2] was 283 nM and the “apparent KD of MS2 coat protein” value [4] was 133 nM.
In the case of “GCAGGUUAAGUCAGGAUAUACCUAUGGAUACAUAGGUAGAAGGGACAUGAGGAUCACCCAUGUGUCUCGCCUGC [Fiskers BMX 4 - 70] (puzzle: Brourd's mod of Exclusion 4)”, the “apparent KD of MS2 coat protein” value [2] is reported as 62.7 nM.
In the case of “GCCGAAAGUGUGAGGAUAUACCUAUGGAAACAUAGGUAGAAGGCACAUGAGGAUCACCCAUGUGGGAAAACGGC [Mat - Exclusion 4 - Eli Mod - D29] (Eterna round: R97, puzzle: Brourd's mod of Exclusion 4)”, the “apparent KD of MS2 coat protein” value (input ligand: FMN 200 uM) is reported as 322 nM and the “apparent KD of MS2 coat protein” value (input ligand: none) is reported as 152 nM.
“GCCGAUUAAGUCAGGAUAUACCUAUGGAUACAUAGGUAGAAGGGACAUGAGGAUCACCCAUGUGCCUCAACGGC [Fiskers BMX 4 - 18] (puzzle: Brourd's mod of Exclusion 4)” was tested, and the “apparent KD of MS2 coat protein” value [3] was 71.7 nM, the “apparent KD of MS2 coat protein” value [2] was 18.9 nM and the “apparent KD of MS2 coat protein” value [4] was 22.7 nM.
For “GCCGUCAGUGUGAGGAUAUGCCUAUGGAUACGUAGGCAGAAGGCACAUGAGGAUCACCCAUGUCCAAAGACGGC [JL-BMX4-4.30 Eli mod] (Eterna round: R97, puzzle: Brourd's mod of Exclusion 4)”, the “apparent KD of MS2 coat protein” value (input ligand: FMN 200 uM) was 520 nM and the “apparent KD of MS2 coat protein” value (input ligand: none) was 181 nM.
For “GCCUCACAUGAGGAUCACCCAUGUCAGGAUAUAGGAGACGGUAGCUUUGCUGCCUUCGCUAGAAGGGACUGGCU (puzzle: Exclusion 1)”, the “apparent KD of MS2 coat protein” value [2] was 29.7 nM.
In the case of “GCCUUAGGAGUCAGGAUAUACAAUAAAAUAAUUAAGUAGAAGGGACAUGAGGAUCACCCAUGUACAUUACAUUG [alecazam29] (Eterna round: R97, puzzle: Brourd's mod of Exclusion 4)”, the “apparent KD of MS2 coat protein” value (input ligand: FMN 200 uM) is reported as 31 nM and the “apparent KD of MS2 coat protein” value (input ligand: none) is reported as 13.6 nM.
For “GCCUUAUCCGUCAGGAUAUACAGCCGCUCCUUGUUGUAGAAGGGACAUGAGGAUCACCCAUGUACGUACCAUUG [alecazam5] (Eterna round: R97, puzzle: Brourd's mod of Exclusion 4)”, the “apparent KD of MS2 coat protein” value (input ligand: FMN 200 uM) was 25.4 nM and the “apparent KD of MS2 coat protein” value (input ligand: none) was 24.7 nM.
In the case of “GCGAAAACAAACAGGUGAAACAUGAGGAUCACCCAUGUCCUCAUUUGCUCGUCUUAUAAGCUAUGCGAAAGCAUAGC [Mat - Sensor v3 - turn-off var 1 - Eli Mod - D55] (puzzle: Sensor v3, turn-off variant 1)”, the “apparent KD of MS2 coat protein” value [3] is reported as 283 nM, the “apparent KD of MS2 coat protein” value [2] is reported as 200 nM and the “apparent KD of MS2 coat protein” value [4] is reported as 348 nM.
For “GCGAAAGCAAAACAAGUGAACAUGAGGAUCACCCAUGUCCUCAUUUGCUCGUCUUAUAAGCUAUGCGAAAGCAUAGC [Sensor 3, v1 - 9] (puzzle: Sensor v3, turn-off variant 1)”, the “apparent KD of MS2 coat protein” value [3] was 99 nM, the “apparent KD of MS2 coat protein” value [2] was 1220 nM and the “apparent KD of MS2 coat protein” value [4] was 96.7 nM.
For “GCGAUAACCGAGGAUAUCGGUGAUAGAGAUAAUUGAGAAGGCGGUACAUGAGGAUCACCCAUGUAUACGUGGGC [Eternabot (L2) Solution 87] (Eterna round: R97, puzzle: Exclusion 6)”, the “apparent KD of MS2 coat protein” value (input ligand: FMN 200 uM) was 16.7 nM and the “apparent KD of MS2 coat protein” value (input ligand: none) was 15.7 nM.
“GCGCAAACGCCAAAAGGCGAAACAACAUGAGGAUCACCCAUGUAGGAUAUCGAUUGCUUUGCAGUCGAGAAGGGCAUAAUGCGC [JL ENG3 3.80 Mod 4] (Eterna round: R96, puzzle: Exclusion NG 3)” was tested, and the “apparent KD of MS2 coat protein” value (input ligand: FMN 200 uM) was 15.4 nM, the “apparent KD of MS2 coat protein” value [1] was 13 nM and the “apparent KD of MS2 coat protein” value (input ligand: none) was 16.6 nM.
With “GCGCACCUACCAAAAGGUAGGCCGACAUGAGGAUCACCCAUGUAGGAUAUCGAUUGCUUUGCAGUCGAGAAGGACGUGAUGCGC [JL ENG3 3.80 Mod 18] (Eterna round: R96, puzzle: Exclusion NG 3)” the “apparent KD of MS2 coat protein” value (input ligand: FMN 200 uM) was 20.1 nM, the “apparent KD of MS2 coat protein” value [1] was 14.7 nM and the “apparent KD of MS2 coat protein” value (input ligand: none) was 19.4 nM.
In the case of “GCGCCAUCGUGAGAUGGCGUACCGACAUGAGGAUCACCCAUGUAGGAUAUCGAUUGCUUUGCAGUCGAGAAGGGCGUGAUAAGU [JL ENG3 3.74] (Eterna round: R96, puzzle: Exclusion NG 3)”, the “apparent KD of MS2 coat protein” value (input ligand: FMN 200 uM) is reported as 27.8 nM, the “apparent KD of MS2 coat protein” value [1] is reported as 24.7 nM and the “apparent KD of MS2 coat protein” value (input ligand: none) is reported as 29.5 nM.
In the case of “GCGCCAUCGUGAGAUGGCGUAUAUACAUGAGGAUCACCCAUGUAGGAUAUCGAUUGCUUUGCAGUCGAGAAGGGCGUGAUAAUU [JL ENG3 3.69] (Eterna round: R96, puzzle: Exclusion NG 3)”, the “apparent KD of MS2 coat protein” value (input ligand: FMN 200 uM) is reported as 109 nM, the “apparent KD of MS2 coat protein” value [1] is reported as 60.5 nM and the “apparent KD of MS2 coat protein” value (input ligand: none) is reported as 82 nM.
In the case of “GCGUCGAGUGUGAGGAUAUGCUGGUCCUUGGAUCAGCAGAAGGCACAUGAGGAUCACCCAUGUGAAAACGAUGC [Mat - Exclusion 4 - JL Mod - D68] (puzzle: Brourd's mod of Exclusion 4)”, the “apparent KD of MS2 coat protein” value [2] is reported as 18.8 nM.
With “GCGUGGACUGAGGAUAUCCGAACGGUGCACGGAGGAGAAGGUAGGACAUGAGGAUCACCCAUGUGAACCUAGAU [Ceinormaat] (Eterna round: R97, puzzle: Exclusion 6)” the “apparent KD of MS2 coat protein” value (input ligand: FMN 200 uM) was 20.6 nM and the “apparent KD of MS2 coat protein” value (input ligand: none) was 19.8 nM.
For “GCUAGAGCAGGAUAUUUAGAUCCUCACAUGAGGAUCACCCAUGUGGCCGAAAGGCUAAGGAGAGAAGGGCUCUAGC [Omei Ex5 E23] (Eterna round: R97, puzzle: Exclusion 5)”, the “apparent KD of MS2 coat protein” value (input ligand: FMN 200 uM) was 1580 nM and the “apparent KD of MS2 coat protein” value (input ligand: none) was 933 nM.
For “GCUAGGAGUGUGAGGAUAUGCUGAUCCUUGGAUCAGCAGAAGGCACAUGAGGAUCACCCAUGUGAAGACCUAGC [Mat - Exclusion 4 - JL Mod - D2] (Eterna round: R97, puzzle: Brourd's mod of Exclusion 4)”, the “apparent KD of MS2 coat protein” value (input ligand: FMN 200 uM) was 169 nM and the “apparent KD of MS2 coat protein” value (input ligand: none) was 30 nM.
In the case of “GCUCGUCUUGUAAUGUUUAACAUGAGGAUCACCCAUGUCACCAACGUCGGAGAUGCAGGUUCAUGUUUUAAUGUAUA [Eternabot (L2) Solution 23] (Eterna round: R97, puzzle: Sensor, turn-off variant 1)”, the “apparent KD of MS2 coat protein” value (input ligand: FMN 200 uM) is reported as 83.5 nM and the “apparent KD of MS2 coat protein” value (input ligand: none) is reported as 82.6 nM.
With “GCUGAAGGGUCGAUUACCAACAUGAGGAUCACCCAUGUUCGGAAUAAUUACAGGUUCGCUCGUCUCGAUGAAAGUCC [Eternabot (L1) Solution 19] (Eterna round: R97, puzzle: Sensor, turn-off variant 1)” the “apparent KD of MS2 coat protein” value (input ligand: FMN 200 uM) was 19.3 nM and the “apparent KD of MS2 coat protein” value (input ligand: none) was 21.7 nM.
